Source: the supplement of paper PMC7877785
± gives the uncertainty stated by the source.

Experiment: self-splicing fitness, log relative to wild type (ln ratio); higher = more splicing; Tetrahymena group I intron in knt gene, E. coli kanamycin selection, DiMSum; sequences stand for … in CUCUCU…GGAGGGAAAAGUUAUCAGGCAUGCACCUGGUAGCUAGUCUUUAAACCAAUAGAUUGCAUCGGUUUAAAAGGCAAGACCGUCAAAUUGCGGGAAAGGGGUCAACAGCCGUUCAGUACCAAGUCUCAGGGGAAACUUUGAGAUGGCCUUGCAAAGGGUAUGGUAAUAAGCUGACGGACAUGGUCCUAACCACGCAGCCAAGUCCUAAGUCAACAGAUCUUCUGUUGAUAUGGAUGCAGUUCACAGACUAAAUGUCGGUCGGGGAAGAUGUAUUCUUCUCAUAAGAUAUAGUCGGACCUCUCCUUAAUGGGAGCUAGCGGAUGAAGUGAUGCAACACUGGAGCCGCUGGGAACUAAUUUGUAUGCGAAAGUAUAUUGAUUAGUUUUGGAGUACUCGUGGUCG
Method in brief: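 DiMSum derived fitness as the error-weighted combination of fold changes across replicates, kanamycin versus no kanamycin, normalised to wild type. E. coli BL21(DE3) held the library, which randomised all eight P1ex-region intron nucleotides within the knt kanamycin-resistance gene on pET-22b(+). Six replicate transformations grew overnight at 37°C or 30°C on LB agar with or without 25 μg/mL kanamycin, also containing 100 μg/mL carbenicillin, 50 μM IPTG and 0.2% rhamnose, and pooled colonies were amplicon-sequenced on an Illumina HiSeq 2500.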

| Sequence | self-splicing fitness (ln) (30 °C) | self-splicing fitness (ln) (37 °C) |
| --- | --- | --- |
| GCACAGCAAUAUUACGCAUG | -2.95 ± 0.19 | -0.809 ± 0.12 |
| ACUAAGCAAUAUUACGUAAA | -2.48 ± 0.13 | -1.6 ± 0.14 |
| AGCAAGCAAUAUUACGCAUC | -2.72 ± 0.093 | -3.73 ± 0.24 |
| GAGCAGCAAUAUUACGUGCC | -1.58 ± 0.41 | -1.34 ± 0.26 |
| GCUUAGCAAUAUUACGGGUC | -3.24 ± 0.23 | -2.31 ± 0.28 |
| CUCAAGCAAUAUUACGUCUA | -3.15 ± 0.16 | -2.07 ± 0.14 |
| CCUGAGCAAUAUUACGCAGU | -2.91 ± 0.2 | -2.84 ± 0.28 |
| CGUCAGCAAUAUUACGUGAC | -3.29 ± 0.18 | -2.82 ± 0.23 |
| AGUGAGCAAUAUUACGGAAG | -2.58 ± 0.25 |  |
| UGUCAGCAAUAUUACGGGAU | -3.26 ± 0.15 | -3.32 ± 0.19 |
| UAUAAGCAAUAUUACGGUAA | -2.02 ± 0.2 | -0.715 ± 0.14 |
| UUUGAGCAAUAUUACGGACU | -4.55 ± 0.34 | -2.99 ± 0.23 |
| GCUAAGCAAUAUUACGAAUA | -2.16 ± 0.21 | -1.73 ± 0.24 |
| CACGAGCAAUAUUACGAGAA |  | -1.61 ± 0.44 |
| AUAUAGCAAUAUUACGCUUC | -2.84 ± 0.38 | -2.86 ± 0.43 |
| UGGUAGCAAUAUUACGUACU | 0.209 ± 0.34 |  |
| CUUAAGCAAUAUUACGGGGA | -3.46 ± 0.29 | -2.16 ± 0.18 |
| CUAAAGCAAUAUUACGUAGA | -3.64 ± 0.19 | -4.04 ± 0.46 |
| UUGAAGCAAUAUUACGUGGG | -2.69 ± 0.099 | -1.35 ± 0.1 |
| CGGUAGCAAUAUUACGAAUA | -2.04 ± 0.35 | -1.67 ± 0.3 |
| GACAAGCAAUAUUACGUCUU | -2.08 ± 0.082 | -1.05 ± 0.085 |
| CUACAGCAAUAUUACGCGGG | -2.27 ± 0.094 | -2.56 ± 0.12 |
| ACAUAGCAAUAUUACGUUAC | -1.52 ± 0.22 |  |
| AUUUAGCAAUAUUACGAUAC | -2.44 ± 0.17 | -1.01 ± 0.25 |
| CUGUAGCAAUAUUACGUUAG | -2.72 ± 0.11 | -1.77 ± 0.11 |
| UGGUAGCAAUAUUACGCACG | -0.419 ± 0.17 |  |
| ACCUAGCAAUAUUACGGGUA | -1.76 ± 0.12 | -1.19 ± 0.088 |

| Sequence | self-splicing fitness (ln) (30 °C) | self-splicing fitness (ln) (37 °C) |
| --- | --- | --- |
| CAGCAGCAAUAUUACGUCAC | -1.69 ± 0.24 | -2.75 ± 0.28 |
| GGUGAGCAAUAUUACGUUGU | -4.18 ± 0.31 | -2.04 ± 0.25 |
| UGGUAGCAAUAUUACGGCGA | -0.171 ± 0.19 | 0.49 ± 0.15 |
| GCGAAGCAAUAUUACGCUAA | -2.54 ± 0.28 | -2.21 ± 0.2 |
| CAAAAGCAAUAUUACGGAUC | -3.73 ± 0.22 | -1.98 ± 0.16 |
| CAUGAGCAAUAUUACGAGUU |  | -2.6 ± 0.24 |
| CGAGAGCAAUAUUACGGUGU | -3.56 ± 0.21 | -2.73 ± 0.24 |
| CCUGAGCAAUAUUACGGGUU | -4.27 ± 0.34 | -2.56 ± 0.31 |
| CCACAGCAAUAUUACGUCGU | -4.38 ± 0.17 | -3.14 ± 0.17 |
| GCUCAGCAAUAUUACGUAGA | -0.134 ± 0.073 | -0.191 ± 0.084 |
| GACGAGCAAUAUUACGUAGU | -2.9 ± 0.26 | -1.88 ± 0.3 |
| GCUGAGCAAUAUUACGGCAA | -1.52 ± 0.21 | -2.9 ± 0.31 |
| AUCUAGCAAUAUUACGGAUG | -2.12 ± 0.12 | 0.0806 ± 0.12 |
| CUACAGCAAUAUUACGUUUU | -4.17 ± 0.18 | -3.26 ± 0.22 |
| AAAAAGCAAUAUUACGACAG | -1.17 ± 0.066 | -0.774 ± 0.088 |
| CAUGAGCAAUAUUACGCUUA | -3.77 ± 0.43 | -2.19 ± 0.25 |
| UACUAGCAAUAUUACGUCUA | -0.655 ± 0.12 | -0.565 ± 0.11 |
| GAAAAGCAAUAUUACGGUAG | -3.24 ± 0.18 | -1.53 ± 0.13 |
| GACAAGCAAUAUUACGAACA | -1.52 ± 0.13 | -0.000414 ± 0.11 |
| UCGCAGCAAUAUUACGCAGU | -3.58 ± 0.2 | -2.35 ± 0.2 |
| ACAAAGCAAUAUUACGCACA | -0.593 ± 0.083 | -0.0238 ± 0.099 |
| GUUAAGCAAUAUUACGCACC | -2.89 ± 0.3 | -2.13 ± 0.32 |
| CAUAAGCAAUAUUACGAACG | -0.246 ± 0.074 | -0.0693 ± 0.087 |
| UUGAAGCAAUAUUACGAAUC | -3.58 ± 0.37 | -2.12 ± 0.32 |
| UACCAGCAAUAUUACGGAAA | -0.915 ± 0.073 | -0.747 ± 0.077 |
| CAUCAGCAAUAUUACGUCUA | -2.35 ± 0.095 | -1.58 ± 0.08 |
| GCGGAGCAAUAUUACGAUAC | -1.78 ± 0.18 | -2.35 ± 0.33 |

| Sequence | self-splicing fitness (ln) (30 °C) | self-splicing fitness (ln) (37 °C) |
| --- | --- | --- |
| CUAGAGCAAUAUUACGUGAG | -0.395 ± 0.074 | 0.0704 ± 0.095 |
| AACGAGCAAUAUUACGUGGG | -3.94 ± 0.15 | -2.7 ± 0.12 |
| GCUAAGCAAUAUUACGUCAA | -1.5 ± 0.26 | -1.76 ± 0.32 |
| GACUAGCAAUAUUACGCGUG | -1.44 ± 0.061 | -0.609 ± 0.067 |
| ACGCAGCAAUAUUACGAAAA | -2.91 ± 0.23 | -2.7 ± 0.2 |
| CCGCAGCAAUAUUACGGUGA | -2.46 ± 0.084 | -0.784 ± 0.075 |
| ACUAAGCAAUAUUACGAUCC | -1.02 ± 0.14 | -0.609 ± 0.16 |
| GUGGAGCAAUAUUACGAUCA | -2.19 ± 0.49 | -0.101 ± 0.2 |
| ACACAGCAAUAUUACGUUCG | -0.803 ± 0.05 | -1.13 ± 0.064 |
| UUAGAGCAAUAUUACGUGGA | -2.18 ± 0.13 | -1.6 ± 0.12 |
| CUACAGCAAUAUUACGCAAG | -2.61 ± 0.15 | -1.45 ± 0.19 |
| GGCAAGCAAUAUUACGUAUC | -0.35 ± 0.063 | 0.0433 ± 0.083 |
| GGAGAGCAAUAUUACGUGAA | -0.689 ± 0.2 | -2.2 ± 0.4 |
| CCCAAGCAAUAUUACGUACC |  | -1.82 ± 0.28 |
| GGUGAGCAAUAUUACGACAC | -0.5 ± 0.18 | 0.114 ± 0.22 |
| UCCCAGCAAUAUUACGCUCC | -1.78 ± 0.22 | -0.443 ± 0.3 |
| UAGCAGCAAUAUUACGCUUG | -2.3 ± 0.18 | -0.988 ± 0.19 |
| CCGCAGCAAUAUUACGGAAG | -3.05 ± 0.12 | -1.33 ± 0.11 |
| AUUUAGCAAUAUUACGUGAC | -2.58 ± 0.18 | -1.49 ± 0.36 |
| GCCGAGCAAUAUUACGCCGC | -3.95 ± 0.43 |  |
| UGGCAGCAAUAUUACGGAGG | -2.38 ± 0.12 | -1.87 ± 0.15 |
| ACGAAGCAAUAUUACGAAAG | -3.2 ± 0.12 | -2.32 ± 0.16 |
| CGACAGCAAUAUUACGCAUC | -3.1 ± 0.14 | -2.75 ± 0.25 |
| GUGGAGCAAUAUUACGGAAC |  | -0.66 ± 0.45 |
| UAAAAGCAAUAUUACGCUAU | -2.11 ± 0.15 | -2.2 ± 0.19 |
